Measured values: paper PMC4933246, “Alanine Expansions Associated with Congenital Central Hypoventilation Syndrome Impair PHOX2B Homeodomain-mediated Dimerization and Nuclear Import*”

B1: ATTA 2 site probe (dsDNA)
DNA 1: TAGTGTGATTGAATTAAAGGGCA
DNA 2: TGCCCTTTAATTCAATCACACTA
B2: ATTA 3-4 sites probe (dsDNA)
DNA 1: GGTGGTATTAAATTCTAATTAGAGATGCA
DNA 2: TGCATCTCTAATTAGAATTTAATACCACC
B3: PHOX2A promoter homeodomain binding site probe (dsDNA)
DNA 1: TCAGAGCGAATTGAATTAACTTCTTCACAC
DNA 2: GTGTGAAGAAGTTAATTCAATTCGCTCTGA
B4: PRS1 (dsDNA)
DNA 1: ATGTGTCATTAGTGCCAATTAGAGG
DNA 2: CCTCTAATTGGCACTAATGACACAT

These binders were tested against PHOX2B WT (HA-tagged) (human, UniProt Q99453 1-314) (assay: EMSA; self-competition and anti-HA supershift; EMSA as previously described (refs 25, 28) with rabbit reticulocyte lysate proteins; buffer, salt, pH and temperature not given). Settings: protein: ivt; tags: N-terminal HA; label: radiolabeled.
Chain of PHOX2B WT (HA-tagged) (Q99453 whole entry): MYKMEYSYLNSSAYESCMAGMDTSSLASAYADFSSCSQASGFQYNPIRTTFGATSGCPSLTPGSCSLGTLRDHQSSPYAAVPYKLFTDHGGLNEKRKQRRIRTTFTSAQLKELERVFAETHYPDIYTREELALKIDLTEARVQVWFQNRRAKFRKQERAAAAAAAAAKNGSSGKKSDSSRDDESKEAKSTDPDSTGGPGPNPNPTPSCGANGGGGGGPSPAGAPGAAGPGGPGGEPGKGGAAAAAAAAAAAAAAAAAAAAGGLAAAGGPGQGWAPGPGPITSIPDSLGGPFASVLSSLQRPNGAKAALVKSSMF
B1: binds.
B2: binds.
B3: binds.
B4: binds.
